Laboratory results taken from patent US20190248900A1 (Y BIOLOGICS, published 2019).

Key:
Assay in all cases: ELISA
EPYC = molecular target: T1, EPYC (Homo sapiens (Human), UniProt Q99645 20-322)
T1 sequence: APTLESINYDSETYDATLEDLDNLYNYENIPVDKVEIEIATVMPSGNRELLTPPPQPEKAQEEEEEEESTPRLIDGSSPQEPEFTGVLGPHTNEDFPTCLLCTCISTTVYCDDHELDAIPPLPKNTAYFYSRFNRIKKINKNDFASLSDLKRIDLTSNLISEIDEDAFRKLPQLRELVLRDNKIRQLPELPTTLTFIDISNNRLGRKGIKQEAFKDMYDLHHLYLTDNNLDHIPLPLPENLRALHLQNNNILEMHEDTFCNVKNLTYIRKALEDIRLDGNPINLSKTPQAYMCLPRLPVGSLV

SCARF1 = molecular target: T2, SCARF1 (Homo sapiens (Human), UniProt Q14162 20-421)
T2 sequence: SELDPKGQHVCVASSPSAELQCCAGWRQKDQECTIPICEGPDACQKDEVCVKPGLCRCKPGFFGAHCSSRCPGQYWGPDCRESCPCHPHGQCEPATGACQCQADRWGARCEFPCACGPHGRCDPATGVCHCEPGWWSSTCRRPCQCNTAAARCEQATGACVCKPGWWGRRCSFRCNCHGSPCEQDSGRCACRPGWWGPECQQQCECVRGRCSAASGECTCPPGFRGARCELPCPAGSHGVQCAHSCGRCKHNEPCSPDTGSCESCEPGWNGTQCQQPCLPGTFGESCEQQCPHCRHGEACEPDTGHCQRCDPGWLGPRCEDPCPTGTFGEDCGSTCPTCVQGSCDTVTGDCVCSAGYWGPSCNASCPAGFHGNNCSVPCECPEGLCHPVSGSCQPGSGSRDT

GREM1 = molecular target: T3, GREM1 (Homo sapiens (Human), UniProt O60565 25-184)
T3 sequence: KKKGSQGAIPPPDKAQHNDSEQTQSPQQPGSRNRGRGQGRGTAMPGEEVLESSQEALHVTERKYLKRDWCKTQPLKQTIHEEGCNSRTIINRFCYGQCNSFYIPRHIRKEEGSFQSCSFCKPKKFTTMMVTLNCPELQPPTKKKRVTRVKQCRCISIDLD

HAPLN4 = HAPLN4 (Homo sapiens (Human), UniProt Q86UW8 30-402)
TNF = TNF (Homo sapiens (Human), UniProt P01375 77-233)
LRRN4 = molecular target: T4, LRRN4 (Homo sapiens (Human), UniProt Q8WUT4 19-679)
T4 sequence: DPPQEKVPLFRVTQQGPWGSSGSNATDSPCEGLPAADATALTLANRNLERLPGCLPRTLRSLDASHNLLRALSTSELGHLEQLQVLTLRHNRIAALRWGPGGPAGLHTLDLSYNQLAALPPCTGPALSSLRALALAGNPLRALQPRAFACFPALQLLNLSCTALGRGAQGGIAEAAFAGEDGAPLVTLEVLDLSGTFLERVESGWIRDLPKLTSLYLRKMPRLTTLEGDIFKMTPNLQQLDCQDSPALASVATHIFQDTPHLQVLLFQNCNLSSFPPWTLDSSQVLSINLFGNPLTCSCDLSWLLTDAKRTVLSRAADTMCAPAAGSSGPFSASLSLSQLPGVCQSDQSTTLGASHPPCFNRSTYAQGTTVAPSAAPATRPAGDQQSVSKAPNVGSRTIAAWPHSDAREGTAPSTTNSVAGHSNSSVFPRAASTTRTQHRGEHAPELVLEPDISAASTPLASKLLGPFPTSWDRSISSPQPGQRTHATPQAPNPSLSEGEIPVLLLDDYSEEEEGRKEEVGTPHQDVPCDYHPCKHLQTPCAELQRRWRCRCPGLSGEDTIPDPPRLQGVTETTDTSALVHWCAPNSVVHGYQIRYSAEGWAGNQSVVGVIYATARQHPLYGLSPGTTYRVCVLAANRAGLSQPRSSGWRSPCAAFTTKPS

RTN4RL1 = molecular target: T5, RTN4RL1 (Homo sapiens (Human), UniProt Q86UN2 25-420)
T5 sequence: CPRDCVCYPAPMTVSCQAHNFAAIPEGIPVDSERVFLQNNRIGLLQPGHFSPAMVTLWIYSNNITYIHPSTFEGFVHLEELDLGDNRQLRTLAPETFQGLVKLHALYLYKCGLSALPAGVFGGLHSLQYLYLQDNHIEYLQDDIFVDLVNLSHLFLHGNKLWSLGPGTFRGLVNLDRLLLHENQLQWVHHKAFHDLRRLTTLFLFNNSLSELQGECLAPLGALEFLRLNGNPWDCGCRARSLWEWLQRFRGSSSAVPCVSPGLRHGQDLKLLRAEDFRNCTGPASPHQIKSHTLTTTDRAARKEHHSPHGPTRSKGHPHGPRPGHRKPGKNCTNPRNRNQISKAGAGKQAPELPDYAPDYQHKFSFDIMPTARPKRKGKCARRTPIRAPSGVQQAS

PLXDC2 = PLXDC2 (Homo sapiens (Human), UniProt Q6UX71 31-454)
FSTL1 = molecular target: T6, FSTL1 (Homo sapiens (Human), UniProt Q12841 21-308)
T6 sequence: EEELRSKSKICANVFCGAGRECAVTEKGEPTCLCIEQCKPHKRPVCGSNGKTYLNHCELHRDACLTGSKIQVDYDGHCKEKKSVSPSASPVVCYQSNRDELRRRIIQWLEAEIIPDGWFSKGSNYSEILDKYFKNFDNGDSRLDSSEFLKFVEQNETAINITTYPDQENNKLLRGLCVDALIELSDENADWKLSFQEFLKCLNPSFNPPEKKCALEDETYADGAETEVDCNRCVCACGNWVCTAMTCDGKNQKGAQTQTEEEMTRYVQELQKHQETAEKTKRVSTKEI

Measured: binding result

Chain of HAPLN4 (Q86UW8 30-402 limits assumed): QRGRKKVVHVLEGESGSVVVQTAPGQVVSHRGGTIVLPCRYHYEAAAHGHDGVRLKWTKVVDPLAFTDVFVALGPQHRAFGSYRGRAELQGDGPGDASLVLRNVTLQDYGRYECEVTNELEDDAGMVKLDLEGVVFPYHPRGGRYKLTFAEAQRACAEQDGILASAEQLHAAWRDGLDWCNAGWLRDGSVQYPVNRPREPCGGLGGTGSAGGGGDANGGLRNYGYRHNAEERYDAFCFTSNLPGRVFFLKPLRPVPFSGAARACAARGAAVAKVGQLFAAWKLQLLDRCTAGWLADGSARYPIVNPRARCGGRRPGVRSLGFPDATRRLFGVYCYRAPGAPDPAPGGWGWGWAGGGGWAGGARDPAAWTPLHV
Chain of PLXDC2 (Q6UX71 31-454 limits assumed): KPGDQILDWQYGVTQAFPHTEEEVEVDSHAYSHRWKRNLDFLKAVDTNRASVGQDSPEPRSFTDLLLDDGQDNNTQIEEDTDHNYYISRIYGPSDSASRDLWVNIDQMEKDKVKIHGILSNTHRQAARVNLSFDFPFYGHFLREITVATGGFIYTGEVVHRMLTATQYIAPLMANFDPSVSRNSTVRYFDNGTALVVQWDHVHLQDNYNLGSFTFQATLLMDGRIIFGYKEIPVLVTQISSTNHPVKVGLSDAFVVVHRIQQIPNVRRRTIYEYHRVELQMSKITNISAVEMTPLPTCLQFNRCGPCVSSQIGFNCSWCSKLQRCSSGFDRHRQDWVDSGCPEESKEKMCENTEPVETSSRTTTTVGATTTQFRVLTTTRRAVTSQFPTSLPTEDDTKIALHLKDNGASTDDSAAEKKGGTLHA
Chain of TNF (P01375 77-233 limits assumed): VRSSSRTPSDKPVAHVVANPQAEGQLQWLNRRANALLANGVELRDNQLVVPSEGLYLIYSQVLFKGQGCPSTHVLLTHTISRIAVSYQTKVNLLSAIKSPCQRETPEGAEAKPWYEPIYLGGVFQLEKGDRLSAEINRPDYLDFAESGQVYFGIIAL

B1: PD1-41C9 (antibody, V domains shown)
VH: QMQLVESGGGVVQPGRSLRLSCAASGFTFSSYAMHWVRQAPGKGLEWVAVISYDGSNKYYADSVKGRFTISRDNSKNTLYLQMNRLRSEDTAVYYCTTTTFDSWGQGTLITVSS
VL: DIVMTQTPLSLPVTPGEAASISCRSSQSLLDSEDGNTYLDWYLQKPGQSPQLLIYTLSHRASGVPDRFSGSGSGTDFTLKISRVAAEDVGLYYCLQRMGFPYTFGQGTKLDIK
notes: scFv-phage in the screening ELISA; whole IgG in the other assays
no binding (tested: 1 ug/ml): all assays above

B2: PD1-49A2 (antibody, V domains shown)
VH: QVQLVESGGGVVQPGRSLRLSCAASGFTFSSYAMHWVRQAPGKGLEWVAVISYDGSNKYYADSVKGRFTISRDNPKNTLYLQMNSLRAEDTAVYYCTTTTFDSWGRGTLVTVSS
VL: DIVMTQSPLSLPVTPGEPASISCRSSQSLFDSDDGNTYLDWYLQKPGQSPQLLIYTLSHRASGVPDRFSGSGSGTDFTLKISRVEAEDVGIYYCLQRMGFPYTFGQGTKVEIK
notes: scFv-phage in the screening ELISA; whole IgG in the other assays; also called Parent 49A2
no binding (tested: 1 ug/ml): all assays above

B3: PD1-45D6 (antibody, V domains shown)
VH: QVQLVESGGGVVQPGRSLRLSCAASGFTFSSYAMHWVRQVPGKGLEWVAVISYDGNDKYYADSVKGRFTISRDNSKNTLYLQMNSLRAEDTAVYYCVPTTFEYWGQGSQVTVSS
VL: DIVMTQTPLSLPVTPGEAASISCRSSQSLLDSDDGKTYLDWYLQKPGQSPQLLIYTLSYRASGVPDRFSGSGSGTEFNLRISRVEAEDVGIYYCMQRVEFPFTFGQGTKLDIK
notes: as for B1
no binding (tested: 1 ug/ml): all assays above
